From publication PMC6073767 come the findings set out here.

The nature of data set [1]: confocal linescan, surface colocalisation, HEK293T co-expression. As to conditions: glycan lost; control: Panx2-FLAG.
Data set [2] in a line: cell-surface biotinylation, NRK. The note with it: glycan lost; control: wild-type Panx2.
A short description of data set [3]: cell-surface biotinylation, AD293. As to conditions: glycan lost; control: wild-type Panx2.
Data set [4] can be described thus: cell-surface biotinylation, HEK293T. The note with it: glycan lost; control: wild-type Panx2.

B1: Panx2: N86Q-FLAG (protein)
parent chain: MHHLLEQSADMATALLAGEKLRELILPGSQDDKAGALAALLLQLKLELPFDRVVTIGTVLVPILLVTLVFTKNFAEEPIYCYTPHNFTRDQALYARGYCWTELRDALPGVDASLWPSLFEHKFLPYALLAFAAIMYVPALGWEFLASTRLTSELNFLLQEIDNCYHRAAEGRAPKIEKQIQSKGPGITEREKREIIENAEKEKSPEQNLFEKYLERRGRSNFLAKLYLARHVLILLLSVVPISYLCTYYATQKQNEFTCALGASPDGPVGSAGPTVRVSCKLPSVQLQRIIAGVDIVLLCFMNLIILVNLIHLFIFRKSNFIFDKLNKVGIKTRRQWRRSQFCDINILAMFCNENRDHIKSLNRLDFITNESDLMYDNVVRQLLAALAQSNHDTTPTVRDSGIQTVDPSINPAEPDGSAEPPVVKRPRKKMKWIPTSNPLPQPFKEQLAIMRVENSKTEKPKPVRRKTATDTLIAPLLDAGARAAHHYKGSGGDSGPSSAPPAASEKKHTRHFSLDVHPYILGTKKAKTEAVPPALPASRSQEGGFLSQTEECGLGLAAAPTKDAPLPEKEIPYPTEPALPGLPSGGSFHVCSPPAAPAAASLSPGSLGKADPLTILSRNATHPLLHISTLYEAREEEEGGPCAPSDMGDLLSIPPPQQILIATFEEPRTVVSTVEF
For the protein B1, the localisation_or_trafficking entry in data set [1] was “decreases”.

B2: Panx2: N86Q (protein)
parent chain: MHHLLEQSADMATALLAGEKLRELILPGSQDDKAGALAALLLQLKLELPFDRVVTIGTVLVPILLVTLVFTKNFAEEPIYCYTPHNFTRDQALYARGYCWTELRDALPGVDASLWPSLFEHKFLPYALLAFAAIMYVPALGWEFLASTRLTSELNFLLQEIDNCYHRAAEGRAPKIEKQIQSKGPGITEREKREIIENAEKEKSPEQNLFEKYLERRGRSNFLAKLYLARHVLILLLSVVPISYLCTYYATQKQNEFTCALGASPDGPVGSAGPTVRVSCKLPSVQLQRIIAGVDIVLLCFMNLIILVNLIHLFIFRKSNFIFDKLNKVGIKTRRQWRRSQFCDINILAMFCNENRDHIKSLNRLDFITNESDLMYDNVVRQLLAALAQSNHDTTPTVRDSGIQTVDPSINPAEPDGSAEPPVVKRPRKKMKWIPTSNPLPQPFKEQLAIMRVENSKTEKPKPVRRKTATDTLIAPLLDAGARAAHHYKGSGGDSGPSSAPPAASEKKHTRHFSLDVHPYILGTKKAKTEAVPPALPASRSQEGGFLSQTEECGLGLAAAPTKDAPLPEKEIPYPTEPALPGLPSGGSFHVCSPPAAPAAASLSPGSLGKADPLTILSRNATHPLLHISTLYEAREEEEGGPCAPSDMGDLLSIPPPQQILIATFEEPRTVVSTVEF
Take B2: the localisation_or_trafficking result in data set [2] and in data set [3] was “decreases” in each case. Besides, the “localisation_or_trafficking, other: surface fraction of total protein” value in data set [4] is given as “decreases, ~1 vs approximately 4”.
